Holding throughout (details): reference: wild-type YFP-p120-1A; sites Y335
The target of one assay is VAV2 (endogenous) (UniProt P52735). Briefly: anti-YFP immunoprecipitation, VAV2 blot.
The next assay deals with cortactin (UniProt Q14247). Briefly: anti-YFP immunoprecipitation, cortactin blot.
The target in a further assay is E-cadherin (UniProt P12830). Briefly: anti-YFP immunoprecipitation, E-cadherin blot.

Take “p120-1A (transfected YFP- or HA-tagged) (from UniProt P30999) Y335F”: the figures for the “binding against the reference” value with VAV2 (endogenous), with cortactin and with E-cadherin were “weaker”, “weaker” and “stronger”, respectively.

Source of the values: paper PMC4007762.
